According to CN112480250A (UNIV SHANGHAI JIAOTONG, dated 2021):

Biological target: 重组人OPN-R (OPN-N端蛋白, 重组骨桥蛋白N端活性结构域 osteopontin I17-R167) (human)
Assay: ForteBio BLI, biotinylated OPN-R on streptavidin sensor, antibody at 50-300 nmol/L, 1:1 model

Chain of 重组人OPN-R (OPN-N端蛋白, 重组骨桥蛋白N端活性结构域 osteopontin I17-R167) (human) (chain, as listed by the source): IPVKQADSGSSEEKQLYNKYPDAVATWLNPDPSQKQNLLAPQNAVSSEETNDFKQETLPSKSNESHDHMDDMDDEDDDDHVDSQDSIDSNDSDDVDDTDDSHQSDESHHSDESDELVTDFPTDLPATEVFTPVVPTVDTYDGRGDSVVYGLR

B1: 抗OPN嵌合抗体(抗体72B) (antibody, V domains shown)
VH: EVMLVESGGGLLKPGGSLKLSCAASGFTFSSYAMSWVRQTPEKRLEWVATITSGGSYTNYSDSVKGRITISRDNAKNTLYLQMSSLRSEDTAMYYCAREGPAWFAYWGQGTLVTVSA
VL: DIVMTQTPLSLPVSLGDQASISCRSSQSIVHSNGNTYLEWYLQKPGQSPKLLIYKVSNRFSGVPDRFSGSGSGTDFTLKISRVEAEDLGVYYCFQGSHVPPTFGGGTKLEIKR
notes: Mouse/human IgG1 chimera made by overlap PCR and expressed in HEK293E; also called 72B抗体; OPN-Ab(72B)
  Kd: 4.55 nM
